Test results as given in patent publication EP1637166A2.

Experiments:
[1] = biological target: mouse CCR5 (mCCR5) cloned from B6 mice, transiently expressed on HeLa-MAGI cells (mouse) (UniProt P51682); test: 0.5 nM 125I-labelled human RANTES on mCCR5-transfected HeLa-MAGI cells, no sera
[2] = biological target: mouse CCR5 (mCCR5) cloned from B6 mice, transiently expressed on HeLa-MAGI cells (mouse) (UniProt P51682); test: 0.5 nM 125I-labelled human RANTES on mCCR5-transfected HeLa-MAGI cells in a 1000-fold excess (500 nM) of cold human RANTES

Sequence of UniProt P51682 (P51682 whole entry): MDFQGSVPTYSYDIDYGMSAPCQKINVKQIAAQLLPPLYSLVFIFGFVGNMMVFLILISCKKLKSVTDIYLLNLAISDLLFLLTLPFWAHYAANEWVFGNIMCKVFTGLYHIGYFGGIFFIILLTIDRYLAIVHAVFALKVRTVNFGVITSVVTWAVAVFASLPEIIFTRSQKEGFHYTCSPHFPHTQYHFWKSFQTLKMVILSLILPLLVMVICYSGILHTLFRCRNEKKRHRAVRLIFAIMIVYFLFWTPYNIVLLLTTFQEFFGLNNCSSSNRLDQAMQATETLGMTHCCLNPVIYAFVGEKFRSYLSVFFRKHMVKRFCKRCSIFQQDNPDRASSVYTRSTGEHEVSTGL

A maximally bound iodinated RANTES [1] of 2550 cpm and a non-specific binding of iodinated RANTES [2] of 1300 cpm were found for “125I-labelled human RANTES (Amersham) (from UniProt P13501 24-91) (ligand)” in this work.
